Bridge positions count the residues as written; N and C are the ends. Ends that are not written are not given here.
Key:
[1] = target: T1, PDGF-beta receptor on human cells (primary human myofibroblasts; human hepatic stellate cells LX2) (human, UniProt P09619 33-1106); assay: FITC-BiPPB on primary freshly isolated human myofibroblasts, fluorescence microscopy
T1 construct: whole, on cells; also called PDGFß-receptor; PDGF-βR
Protocol: (§1) Cells were seeded in the 8-well glass plates (Lab-Tek, Nunc, Naperville, Ill.) at 30,000 cells/well in the culture medium. […] After 2 h, cells were washed 3 to 4 times with cold PBS and fixed with 4% paraformaldehyde. The nuclei were counterstained with DAPI and mounted in citifluor (anti-fade reagent) and visualized under fluorescent microscope.
(§2) Similar binding experiments were performed in primary freshly isolated human myofibroblasts, mouse 3T3 fibroblasts and human hepatic stellate cells (LX2).

[2] = target: T2, PDGF-beta receptor on mouse 3T3 fibroblasts (mouse, UniProt P05622 32-1098); assay: FITC-BiPPB on mouse 3T3 fibroblasts, fluorescence microscopy
T2 construct: whole, on cells; also called PDGFß-receptor; PDGF-receptor
Protocol: as §1, §2

[3] = target: T3, PDGF-beta receptor on primary freshly isolated rat hepatic stellate cells (rat, UniProt Q05030 32-1097); assay: FITC-BiPPB on primary rat hepatic stellate cells, fluorescence microscopy
T3 construct: whole, on cells; also called PDGFß-receptor; PDGF-βR
Protocol: as §1

T3 sequence (Q05030 32-1097): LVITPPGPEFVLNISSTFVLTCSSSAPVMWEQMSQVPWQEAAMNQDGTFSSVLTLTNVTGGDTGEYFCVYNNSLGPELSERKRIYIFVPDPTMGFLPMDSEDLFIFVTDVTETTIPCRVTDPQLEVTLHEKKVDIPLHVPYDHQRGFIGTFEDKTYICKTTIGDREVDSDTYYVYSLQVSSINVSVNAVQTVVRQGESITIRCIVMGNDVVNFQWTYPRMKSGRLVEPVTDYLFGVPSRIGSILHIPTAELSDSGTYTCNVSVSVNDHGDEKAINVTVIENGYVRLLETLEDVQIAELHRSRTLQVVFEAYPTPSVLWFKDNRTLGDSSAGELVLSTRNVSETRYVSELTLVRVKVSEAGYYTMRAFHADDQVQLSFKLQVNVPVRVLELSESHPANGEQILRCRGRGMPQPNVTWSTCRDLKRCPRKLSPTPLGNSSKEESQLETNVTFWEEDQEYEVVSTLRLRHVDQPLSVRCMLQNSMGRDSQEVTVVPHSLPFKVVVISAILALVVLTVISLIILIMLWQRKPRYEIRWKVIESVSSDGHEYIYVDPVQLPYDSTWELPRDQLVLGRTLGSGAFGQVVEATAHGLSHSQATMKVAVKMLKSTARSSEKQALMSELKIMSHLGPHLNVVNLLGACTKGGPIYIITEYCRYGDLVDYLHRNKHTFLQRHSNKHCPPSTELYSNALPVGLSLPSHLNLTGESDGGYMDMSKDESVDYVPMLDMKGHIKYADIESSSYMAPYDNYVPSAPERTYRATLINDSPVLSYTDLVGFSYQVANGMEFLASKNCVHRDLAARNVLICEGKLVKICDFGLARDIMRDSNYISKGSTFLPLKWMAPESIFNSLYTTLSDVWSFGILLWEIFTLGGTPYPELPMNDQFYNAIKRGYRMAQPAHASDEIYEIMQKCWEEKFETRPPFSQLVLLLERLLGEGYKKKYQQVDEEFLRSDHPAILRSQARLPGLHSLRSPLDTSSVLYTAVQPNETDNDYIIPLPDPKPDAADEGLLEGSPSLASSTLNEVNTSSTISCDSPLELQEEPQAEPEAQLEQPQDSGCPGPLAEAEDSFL
T2 sequence (P05622 32-1098): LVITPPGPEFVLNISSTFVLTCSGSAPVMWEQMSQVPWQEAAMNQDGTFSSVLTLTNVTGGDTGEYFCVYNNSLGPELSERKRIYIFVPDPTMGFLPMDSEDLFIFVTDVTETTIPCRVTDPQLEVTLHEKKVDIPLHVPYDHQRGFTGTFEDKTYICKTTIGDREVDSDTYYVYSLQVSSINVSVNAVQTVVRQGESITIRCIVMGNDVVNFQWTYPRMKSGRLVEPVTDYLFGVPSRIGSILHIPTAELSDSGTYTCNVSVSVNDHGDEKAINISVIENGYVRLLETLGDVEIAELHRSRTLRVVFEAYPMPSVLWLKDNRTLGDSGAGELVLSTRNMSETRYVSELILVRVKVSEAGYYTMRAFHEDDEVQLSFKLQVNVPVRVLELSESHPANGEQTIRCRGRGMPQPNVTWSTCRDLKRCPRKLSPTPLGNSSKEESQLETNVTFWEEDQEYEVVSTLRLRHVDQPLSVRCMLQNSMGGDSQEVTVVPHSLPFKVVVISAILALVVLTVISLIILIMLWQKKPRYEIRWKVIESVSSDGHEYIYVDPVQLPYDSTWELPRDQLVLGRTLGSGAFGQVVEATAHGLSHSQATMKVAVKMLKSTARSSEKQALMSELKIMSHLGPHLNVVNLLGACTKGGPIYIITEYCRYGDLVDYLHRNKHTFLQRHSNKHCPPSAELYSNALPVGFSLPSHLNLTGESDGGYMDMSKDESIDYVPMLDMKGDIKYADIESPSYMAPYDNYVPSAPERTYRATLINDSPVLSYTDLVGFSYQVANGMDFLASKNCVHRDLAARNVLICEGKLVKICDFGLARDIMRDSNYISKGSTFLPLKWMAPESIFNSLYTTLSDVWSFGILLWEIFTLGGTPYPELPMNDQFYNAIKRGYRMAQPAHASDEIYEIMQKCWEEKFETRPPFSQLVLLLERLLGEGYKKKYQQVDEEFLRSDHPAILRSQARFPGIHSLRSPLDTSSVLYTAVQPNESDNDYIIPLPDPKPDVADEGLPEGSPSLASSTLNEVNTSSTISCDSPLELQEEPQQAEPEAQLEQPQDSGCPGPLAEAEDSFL
T1 sequence (P09619 33-1106): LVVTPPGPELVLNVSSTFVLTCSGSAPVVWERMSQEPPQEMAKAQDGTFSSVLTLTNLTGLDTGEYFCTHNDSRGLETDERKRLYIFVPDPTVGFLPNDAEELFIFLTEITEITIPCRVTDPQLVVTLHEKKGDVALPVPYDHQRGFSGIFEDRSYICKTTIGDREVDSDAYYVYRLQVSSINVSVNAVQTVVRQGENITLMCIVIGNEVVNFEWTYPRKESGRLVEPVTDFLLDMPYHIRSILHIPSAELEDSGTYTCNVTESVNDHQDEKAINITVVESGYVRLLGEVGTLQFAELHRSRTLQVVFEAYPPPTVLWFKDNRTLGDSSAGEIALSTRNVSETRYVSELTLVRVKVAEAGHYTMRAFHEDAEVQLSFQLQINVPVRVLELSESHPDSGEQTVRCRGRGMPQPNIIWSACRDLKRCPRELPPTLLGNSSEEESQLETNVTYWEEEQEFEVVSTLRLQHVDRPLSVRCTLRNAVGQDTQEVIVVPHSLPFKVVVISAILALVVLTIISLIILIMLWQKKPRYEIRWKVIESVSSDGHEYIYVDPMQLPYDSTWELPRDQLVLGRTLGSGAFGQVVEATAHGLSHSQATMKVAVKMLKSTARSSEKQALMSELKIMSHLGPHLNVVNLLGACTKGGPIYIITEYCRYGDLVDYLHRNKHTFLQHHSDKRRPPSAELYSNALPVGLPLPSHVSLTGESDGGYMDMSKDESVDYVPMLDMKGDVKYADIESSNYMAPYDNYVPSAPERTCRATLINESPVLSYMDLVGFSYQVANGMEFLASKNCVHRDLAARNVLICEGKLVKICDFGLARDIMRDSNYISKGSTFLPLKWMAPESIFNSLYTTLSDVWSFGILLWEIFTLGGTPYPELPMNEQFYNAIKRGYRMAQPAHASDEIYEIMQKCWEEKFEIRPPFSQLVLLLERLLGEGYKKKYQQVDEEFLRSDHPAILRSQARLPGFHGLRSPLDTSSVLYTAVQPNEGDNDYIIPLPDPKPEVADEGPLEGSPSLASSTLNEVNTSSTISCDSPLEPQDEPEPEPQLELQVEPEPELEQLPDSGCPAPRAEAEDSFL

- binding result [1]: binds
- binding result [2]: binds
- binding result [3]: binds
B1: BiPPB (bicyclic PDGF-beta-receptor binding peptide), C(1)SRNLIDC(1)GGGDGGC(2)SRNLIDC(2), FITC-labelled (peptide)
peptide: CSRNLIDCGGGDGGCSRNLIDC
modifications: disulfide 1-8, 15-22; also: FITC label (site not given here)
notes: Used on primary rat hepatic stellate cells; also called FITC-coupled BiPPB
